In the test the target is T1, CD3 epsilon homodimer protein (UniProt P07766 23-126).
T1 construct: also called CD3 (CD3 epsilon)
Description: SPR, CD3e homodimer on chip.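 Further: surface plasmon resonance at 25 degrees C, antibodies flowed as analyte over CD3 epsilon homodimer amine-coupled to a CM4 chip, running buffer HBS-EP+.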

T1 sequence (P07766 23-126): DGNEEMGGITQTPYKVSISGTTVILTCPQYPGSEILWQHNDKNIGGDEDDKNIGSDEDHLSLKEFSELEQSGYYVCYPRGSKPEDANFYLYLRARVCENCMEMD

B1: GLS3000 H27dK one-arm antibody (H chain CE115HA000) (antibody, human IgG1, kappa, L234A L235A, N297A, name in Kabat numbering)
heavy: QVQLVESGGGVVQPGRSLRLSCAASGFTFSNAWMHWVRQAPGKGLEWVAQIKAKSNNYATYYAESVKGRFTISRDDSKNSLYLQMNSLKTEDTAVYYCRYVHYGAYYGVDAWGQGTTVTVSSASTKGPSVFPLAPSSKSTSGGTAALGCLVKDYFPEPVTVSWNSGALTSGVHTFPAVLQSSGLYSLSSVVTVPSSSLGTQTYICNVNHKPSNTKVDKKVEPKSCDKTHTCPPCPAPEAAGGPSVFLFPPKPKDTLMISRTPEVTCVVVDVSHEDPEVKFNWYVDGVEVHNAKTKPREEQYASTYRVVSVLTVLHQDWLNGKEYKCKVSNKALPAPIEKTISKAKGQPREPQVYTLPPSRCELTKNQVSLSCAVKGFYPSDIAVEWESNGQPENNYKTTPPVLDSDGSFFLVSKLTVDKSRWQQGNVFSCSVMHEALHNHYTQKSLSLSPDYKDDDDK
chain: EPKSSDKTHTCPPCPAPELLGGPSVFLFPPKPKDTLMISRTPEVTCVVVDVSHEDPEVKFNWYVDGVEVHNAKTKPREEQYNSTYRVVSVLTVLHQDWLNGKEYKCKVSNKALPAPIEKTISKAKGQPREPQVCTLPPSRDELTKNQVSLWCLVKGFYPSDIAVEWESNGQPENNYKTTPPVLDSDGSFFLYSKLTVDKSRWQQGNVFSCSVMHEALHNRYTQKSLSLSP
light: DIVMTQSPLSLPVTPGEPASISCRSSQSLVKSNRNTYLHWYQQKPGQAPRLLIYKVSNRFSGVPDRFSGSGSGTDFTLKISRVEAEDVGVYYCGQGTQVPYTFGQGTKLEIKRTVAAPSVFIFPPSDEQLKSGTASVVCLLNNFYPREAKVQWKVDNALQSGNSQESVTEQDSKDSTYSLSSTLTLSKADYEKHKVYACEVTHQGLSSPVTKSFNRGEC
notes: one-arm antibody
Consider B1, for which the “ratio of amounts bound (altered form / unaltered GLS3000 antibody)” value was 0.29.

B2: GLS3000 H27dP one-arm antibody (H chain CE115HA000) (antibody, human IgG1, kappa, L234A L235A, N297A, name in Kabat numbering)
heavy: QVQLVESGGGVVQPGRSLRLSCAASGFTFSNAWMHWVRQAPGKGLEWVAQIKAKSNNYATYYAESVKGRFTISRDDSKNSLYLQMNSLKTEDTAVYYCRYVHYGAYYGVDAWGQGTTVTVSSASTKGPSVFPLAPSSKSTSGGTAALGCLVKDYFPEPVTVSWNSGALTSGVHTFPAVLQSSGLYSLSSVVTVPSSSLGTQTYICNVNHKPSNTKVDKKVEPKSCDKTHTCPPCPAPEAAGGPSVFLFPPKPKDTLMISRTPEVTCVVVDVSHEDPEVKFNWYVDGVEVHNAKTKPREEQYASTYRVVSVLTVLHQDWLNGKEYKCKVSNKALPAPIEKTISKAKGQPREPQVYTLPPSRCELTKNQVSLSCAVKGFYPSDIAVEWESNGQPENNYKTTPPVLDSDGSFFLVSKLTVDKSRWQQGNVFSCSVMHEALHNHYTQKSLSLSPDYKDDDDK
chain: EPKSSDKTHTCPPCPAPELLGGPSVFLFPPKPKDTLMISRTPEVTCVVVDVSHEDPEVKFNWYVDGVEVHNAKTKPREEQYNSTYRVVSVLTVLHQDWLNGKEYKCKVSNKALPAPIEKTISKAKGQPREPQVCTLPPSRDELTKNQVSLWCLVKGFYPSDIAVEWESNGQPENNYKTTPPVLDSDGSFFLYSKLTVDKSRWQQGNVFSCSVMHEALHNRYTQKSLSLSP
light: DIVMTQSPLSLPVTPGEPASISCRSSQSLVPSNRNTYLHWYQQKPGQAPRLLIYKVSNRFSGVPDRFSGSGSGTDFTLKISRVEAEDVGVYYCGQGTQVPYTFGQGTKLEIKRTVAAPSVFIFPPSDEQLKSGTASVVCLLNNFYPREAKVQWKVDNALQSGNSQESVTEQDSKDSTYSLSSTLTLSKADYEKHKVYACEVTHQGLSSPVTKSFNRGEC
notes: one-arm antibody
Turning to B2, the “ratio of amounts bound (altered form / unaltered GLS3000 antibody)” value was 0.24.

B3: GLS3000 H27dQ one-arm antibody (H chain CE115HA000) (antibody, human IgG1, kappa, L234A L235A, N297A, name in Kabat numbering)
heavy: QVQLVESGGGVVQPGRSLRLSCAASGFTFSNAWMHWVRQAPGKGLEWVAQIKAKSNNYATYYAESVKGRFTISRDDSKNSLYLQMNSLKTEDTAVYYCRYVHYGAYYGVDAWGQGTTVTVSSASTKGPSVFPLAPSSKSTSGGTAALGCLVKDYFPEPVTVSWNSGALTSGVHTFPAVLQSSGLYSLSSVVTVPSSSLGTQTYICNVNHKPSNTKVDKKVEPKSCDKTHTCPPCPAPEAAGGPSVFLFPPKPKDTLMISRTPEVTCVVVDVSHEDPEVKFNWYVDGVEVHNAKTKPREEQYASTYRVVSVLTVLHQDWLNGKEYKCKVSNKALPAPIEKTISKAKGQPREPQVYTLPPSRCELTKNQVSLSCAVKGFYPSDIAVEWESNGQPENNYKTTPPVLDSDGSFFLVSKLTVDKSRWQQGNVFSCSVMHEALHNHYTQKSLSLSPDYKDDDDK
chain: EPKSSDKTHTCPPCPAPELLGGPSVFLFPPKPKDTLMISRTPEVTCVVVDVSHEDPEVKFNWYVDGVEVHNAKTKPREEQYNSTYRVVSVLTVLHQDWLNGKEYKCKVSNKALPAPIEKTISKAKGQPREPQVCTLPPSRDELTKNQVSLWCLVKGFYPSDIAVEWESNGQPENNYKTTPPVLDSDGSFFLYSKLTVDKSRWQQGNVFSCSVMHEALHNRYTQKSLSLSP
light: DIVMTQSPLSLPVTPGEPASISCRSSQSLVQSNRNTYLHWYQQKPGQAPRLLIYKVSNRFSGVPDRFSGSGSGTDFTLKISRVEAEDVGVYYCGQGTQVPYTFGQGTKLEIKRTVAAPSVFIFPPSDEQLKSGTASVVCLLNNFYPREAKVQWKVDNALQSGNSQESVTEQDSKDSTYSLSSTLTLSKADYEKHKVYACEVTHQGLSSPVTKSFNRGEC
notes: one-arm antibody
Turning to B3, the “ratio of amounts bound (altered form / unaltered GLS3000 antibody)” value is 0.25.

B4: GLS3000 H27dM one-arm antibody (H chain CE115HA000) (antibody, human IgG1, kappa, L234A L235A, N297A, name in Kabat numbering)
heavy: QVQLVESGGGVVQPGRSLRLSCAASGFTFSNAWMHWVRQAPGKGLEWVAQIKAKSNNYATYYAESVKGRFTISRDDSKNSLYLQMNSLKTEDTAVYYCRYVHYGAYYGVDAWGQGTTVTVSSASTKGPSVFPLAPSSKSTSGGTAALGCLVKDYFPEPVTVSWNSGALTSGVHTFPAVLQSSGLYSLSSVVTVPSSSLGTQTYICNVNHKPSNTKVDKKVEPKSCDKTHTCPPCPAPEAAGGPSVFLFPPKPKDTLMISRTPEVTCVVVDVSHEDPEVKFNWYVDGVEVHNAKTKPREEQYASTYRVVSVLTVLHQDWLNGKEYKCKVSNKALPAPIEKTISKAKGQPREPQVYTLPPSRCELTKNQVSLSCAVKGFYPSDIAVEWESNGQPENNYKTTPPVLDSDGSFFLVSKLTVDKSRWQQGNVFSCSVMHEALHNHYTQKSLSLSPDYKDDDDK
chain: EPKSSDKTHTCPPCPAPELLGGPSVFLFPPKPKDTLMISRTPEVTCVVVDVSHEDPEVKFNWYVDGVEVHNAKTKPREEQYNSTYRVVSVLTVLHQDWLNGKEYKCKVSNKALPAPIEKTISKAKGQPREPQVCTLPPSRDELTKNQVSLWCLVKGFYPSDIAVEWESNGQPENNYKTTPPVLDSDGSFFLYSKLTVDKSRWQQGNVFSCSVMHEALHNRYTQKSLSLSP
light: DIVMTQSPLSLPVTPGEPASISCRSSQSLVMSNRNTYLHWYQQKPGQAPRLLIYKVSNRFSGVPDRFSGSGSGTDFTLKISRVEAEDVGVYYCGQGTQVPYTFGQGTKLEIKRTVAAPSVFIFPPSDEQLKSGTASVVCLLNNFYPREAKVQWKVDNALQSGNSQESVTEQDSKDSTYSLSSTLTLSKADYEKHKVYACEVTHQGLSSPVTKSFNRGEC
notes: one-arm antibody
Consider B4, for which the “ratio of amounts bound (altered form / unaltered GLS3000 antibody)” value was 0.3.

B5: GLS3000 H27dN one-arm antibody (H chain CE115HA000) (antibody, human IgG1, kappa, L234A L235A, N297A, name in Kabat numbering)
heavy: QVQLVESGGGVVQPGRSLRLSCAASGFTFSNAWMHWVRQAPGKGLEWVAQIKAKSNNYATYYAESVKGRFTISRDDSKNSLYLQMNSLKTEDTAVYYCRYVHYGAYYGVDAWGQGTTVTVSSASTKGPSVFPLAPSSKSTSGGTAALGCLVKDYFPEPVTVSWNSGALTSGVHTFPAVLQSSGLYSLSSVVTVPSSSLGTQTYICNVNHKPSNTKVDKKVEPKSCDKTHTCPPCPAPEAAGGPSVFLFPPKPKDTLMISRTPEVTCVVVDVSHEDPEVKFNWYVDGVEVHNAKTKPREEQYASTYRVVSVLTVLHQDWLNGKEYKCKVSNKALPAPIEKTISKAKGQPREPQVYTLPPSRCELTKNQVSLSCAVKGFYPSDIAVEWESNGQPENNYKTTPPVLDSDGSFFLVSKLTVDKSRWQQGNVFSCSVMHEALHNHYTQKSLSLSPDYKDDDDK
chain: EPKSSDKTHTCPPCPAPELLGGPSVFLFPPKPKDTLMISRTPEVTCVVVDVSHEDPEVKFNWYVDGVEVHNAKTKPREEQYNSTYRVVSVLTVLHQDWLNGKEYKCKVSNKALPAPIEKTISKAKGQPREPQVCTLPPSRDELTKNQVSLWCLVKGFYPSDIAVEWESNGQPENNYKTTPPVLDSDGSFFLYSKLTVDKSRWQQGNVFSCSVMHEALHNRYTQKSLSLSP
light: DIVMTQSPLSLPVTPGEPASISCRSSQSLVNSNRNTYLHWYQQKPGQAPRLLIYKVSNRFSGVPDRFSGSGSGTDFTLKISRVEAEDVGVYYCGQGTQVPYTFGQGTKLEIKRTVAAPSVFIFPPSDEQLKSGTASVVCLLNNFYPREAKVQWKVDNALQSGNSQESVTEQDSKDSTYSLSSTLTLSKADYEKHKVYACEVTHQGLSSPVTKSFNRGEC
notes: one-arm antibody
Take B5: the “ratio of amounts bound (altered form / unaltered GLS3000 antibody)” value is 0.3.

B6: GLS3000 H27dL one-arm antibody (H chain CE115HA000) (antibody, human IgG1, kappa, L234A L235A, N297A, name in Kabat numbering)
heavy: QVQLVESGGGVVQPGRSLRLSCAASGFTFSNAWMHWVRQAPGKGLEWVAQIKAKSNNYATYYAESVKGRFTISRDDSKNSLYLQMNSLKTEDTAVYYCRYVHYGAYYGVDAWGQGTTVTVSSASTKGPSVFPLAPSSKSTSGGTAALGCLVKDYFPEPVTVSWNSGALTSGVHTFPAVLQSSGLYSLSSVVTVPSSSLGTQTYICNVNHKPSNTKVDKKVEPKSCDKTHTCPPCPAPEAAGGPSVFLFPPKPKDTLMISRTPEVTCVVVDVSHEDPEVKFNWYVDGVEVHNAKTKPREEQYASTYRVVSVLTVLHQDWLNGKEYKCKVSNKALPAPIEKTISKAKGQPREPQVYTLPPSRCELTKNQVSLSCAVKGFYPSDIAVEWESNGQPENNYKTTPPVLDSDGSFFLVSKLTVDKSRWQQGNVFSCSVMHEALHNHYTQKSLSLSPDYKDDDDK
chain: EPKSSDKTHTCPPCPAPELLGGPSVFLFPPKPKDTLMISRTPEVTCVVVDVSHEDPEVKFNWYVDGVEVHNAKTKPREEQYNSTYRVVSVLTVLHQDWLNGKEYKCKVSNKALPAPIEKTISKAKGQPREPQVCTLPPSRDELTKNQVSLWCLVKGFYPSDIAVEWESNGQPENNYKTTPPVLDSDGSFFLYSKLTVDKSRWQQGNVFSCSVMHEALHNRYTQKSLSLSP
light: DIVMTQSPLSLPVTPGEPASISCRSSQSLVLSNRNTYLHWYQQKPGQAPRLLIYKVSNRFSGVPDRFSGSGSGTDFTLKISRVEAEDVGVYYCGQGTQVPYTFGQGTKLEIKRTVAAPSVFIFPPSDEQLKSGTASVVCLLNNFYPREAKVQWKVDNALQSGNSQESVTEQDSKDSTYSLSSTLTLSKADYEKHKVYACEVTHQGLSSPVTKSFNRGEC
notes: one-arm antibody
For the molecule B6, the “ratio of amounts bound (altered form / unaltered GLS3000 antibody)” value was found to be 0.3.

For the origin of these results see patent US20240270846A1 (published 2024).
